Measurements published in the nanobody polyreactivity screen of Harvey et al. (2022).

Assay: yeast display, Sf9 membrane polyspecificity reagent, FACS + sequencing; frameworks hold sequencing errors
In short: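 Nanobodies came from a synthetic yeast display library in Saccharomyces cerevisiae BJ5465, induced with galactose for 36–48 hours and stained for 1 hour at 4 °C with 10% biotinylated, detergent-solubilized Sf9 membrane reagent. Cells were enriched on streptavidin microbeads and then FACS-sorted, with low and high (top ~1%) gates set on anti-HA fluorescence for expression and streptavidin fluorescence for reagent binding. Each polyreactivity label reflects the gate a clone came from. Genes were amplified by colony PCR, sequenced by MiSeq 2 × 250 and filtered by CDR length.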

| Sequence | polyreactivity (PSR sort gate) |
| --- | --- |
| QGQLVESGGGLVQAGGSIRLSCAASGSTTFYAMGWYRQAPGKEWELVATISSSAGSTYYADSVKGRFTISRDNAKNTVYLQMNSLKPEDTAFYYCAKAAYGNSYTSDYWGQGTQVTVSS | low polyreactivity |
| QGQLVESGGGLVQAGGSLRLSCAASARTYGNYAMGRYREAPGKERELVADITRRGGSTSYADSVKGRFTISRDNAKNTVYLQMNSLKPEDTAVYYCNKRTTPYYSQGITRIEYDYWGQGTQVTVSS | low polyreactivity |
| QGQLVESGGGLVQAGGSLRLSCAASGFIFFSNAMGWYRQEPGKERELVAAISRIGVSTYYADSVKGRFTISRDNAKNTVYLQLNSLKPEDTAVYYCAADLSDYWRGDSWGQGTLVTVSS | low polyreactivity |
| QGQLVESGGGLVQAGGSLRLSCAASGFIFSSNAMGLYRHAPGKERELVAAISSSGGNTYYADSVKGRFTISRDNAKKTVDLQMNSLKPEDTAVYYCAADLSSAYGHDYWGLGTQVTVSS | low polyreactivity |
| QGQLVESGGGLVQAGGSLRLSCAASGFTFGHYAMGWYRQAPGKERELVAAIRWSGGSTYYADSVKGRFTISRDNAKNTVYLQMNSLKPEDTAVYYCAARGFDGYEYDYWGQGTQVTVSS | low polyreactivity |
| QGQLVESGGGLVQAGGSLRLSCAASGFTFWYYAKGWSRQAPRKEREMVAVINTSGASTYADSVKGRFTISRDNAKITVDLQMNSLKPEDTAVYYCAAEGIATYPYDYWGHGTQVTVSS | low polyreactivity |
| QGQLVESGGGLVQAGGSLRLSCAASGISFSFYAMGWYRQAPGKERELVADITLSGGRTYYADSVKGRFTISRDNAKNTVYLQMNSLKPEDTAVYYCNADTYERVDYWGQGTQVTVSS | high polyreactivity |
| QGQLVESGGGLVQAGGSLRLSCAASGITFYYYAMGWYRQAPGKERELVAAINWSGTSTYYADSVKGRFTISRDNAKNTVYLQMNSLKPEDTAVYYCNAERGRSFWWAYDYWGQGTQVTVSS | low polyreactivity |
| QGQLVESGGGLVQAGGSLRLSCAASGLIFYKYAMGWYRQAPGKERELVAVISWSGGSTYYADSVKGRFTISRDNAKNTVYLQMNRLKPEDTAVYYCAADTSYYRIRGWFGRVDYGYWGQGTQVTVSS | high polyreactivity |
| QGQLVESGGGLVQAGGSLRLSCAASGRIFEFNARGWYRQAPGKERELVAANSRSGGSTYYADSVKGRFTISRDKAKNTVYLQMNTQKPEHTAVYYCNAVYHYYPLYYWKYGYWGQGTQVTVSS | low polyreactivity |
| QGQLVESGGGLVQAGGSLRLSCAASGRIFGHYAMGWYRQAPGKERELVAAISQSGTNTYYADSVKGRFTISRDNAKNTVYLQMNSLKPEDTAVYYCAAKPPRRYQLMDYWGQGTQVTVSS | high polyreactivity |
| QGQLVESGGGLVQAGGSLRLSCAASGRIFYAYAMGWYRQAPGKERELGAAITSSGGRTYYADSVKGRFTISRDTAKNTVYLQLNSLKPEDTAVYYCAAYDYWGQGTQVTVSS | low polyreactivity |
| QGQLVESGGGLVQAGGSLRLSCAASGRIFYGNVMGWYRQAPGKERELVADISYDGGSTYYADSVKGRFTISRDNAKNTVYLQMNSLKPEDTAVYYCNKREVFIYGTTYDYWGQGTQVTVSS | low polyreactivity |
| QGQLVESGGGLVQAGGSLRLSCAASGRNFRINDMGWYRQAPGKERELVAAITWSGGSTYYADSVKGRCPISRDNAKNTVYLQMHSLKPEDTAVYYCAADQAYFWGYYYWGQGTQVTVSS | low polyreactivity |
| QGQLVESGGGLVQAGGSLRLSCAASGRTFKYNVMGWYRQAPGKERELVAAISSGGGTNYADSVKGRFTISRDNAKNTVDLQMNSLKPEDTAVYYCAAKYAWRLLEMYYWGQGTQVTVSS | low polyreactivity |
| QGQLVESGGGLVQAGGSLRLSCAASGRTFYRYAMGWYRQAPGKERELVAAITRRGDSTSYADSVKGRFTISRDNAKNTVYLQMNSLKPEDTAVYYCATLVQGSVYGLYGGGYWGQGTQVTVSS | low polyreactivity |
| QGQLVESGGGLVQAGGSLRLSCAASGRTFYRYAMGWYRQAPGQERELVASITRGTSTNYADSVKGRFTISRDNAKNTVYLQMNSLKPEDTAVYYCAAGASGLFWDYDYWGQGTQVTVSS | high polyreactivity |
| QGQLVESGGGLVQAGGSLRLSCAASGRTVGEYTMGWSRPAPGKERELVAAISSAGRTNYADSVKGRFTISRDNAKNTVYLQMHRLKPEDTAVYYCAADWTDDVPGYDYWGQGTKVTVSS | low polyreactivity |
| QGQLVESGGGLVQAGGSLRLSCAASGSIFEGYVMGWYRQAPGKERELFATISFSGGSTYYADSVKGRFTISRDNAKNTGYLQMNSLKPVDTAVYFCADSVPYKFYSVVSVRYEYWGQGTQVTVSS | low polyreactivity |
| QGQLVESGGGLVQAGGSLRLSCAASGSIFVLNAMGWYRQAPGKERELVAAISGGSTNYADSVKGRFTISRDNAKNTVYLQMNSLKPEDTAVYYCAARARRRYYYWGQGTQVTVSS | high polyreactivity |
| QGQLVESGGGLVQAGGSLRLSCAASGSSFRGNALGGYRQAPGKERELVASISYSGGSTYYADSVKGRFTISRDSAKNTVYLQMNSLKPEDTAVYYCAADDSVAYPYSGYQYYRHIYDDWGQGTQVTVSS | low polyreactivity |
| QGQLVESGGGLVQAGGSLRLSCAASGSTFNSYAMGWYRQAPGKERELVAAISRGGASTYYADSVKGSFTISRDNAKNTVYLQMNSLKPEDTAVYYCATVYYHRFDYWGQGTQVTVSS | high polyreactivity |

| Sequence | polyreactivity (PSR sort gate) |
| --- | --- |
| QGQLVESGGGLVQAGGSLRLSCAASGSTFTRYGMGWYRQAPGKERELVAAITTSGSSTYYADSVKGRFTISRDNAKNTVYLQMNSLKPEDTAVYYCAADWSSWGFDYWGQGTQVTVSS | low polyreactivity |
| QGQLVESGGGLVQAGGSLRLSCAASGSTFYLNAMGWYRQAPGKERELVATITRRGGRTYYADSVKGRFTISRDNAKNTVYLKMNSLKPEDTAVYYCNKGGISPGDALYGYWGQGTQVTVSS | low polyreactivity |
| QGQLVESGGGLVQAGGSLRLSCAASGSTFYTNAMGWYRQAPGKERELVAAISGSGGSTYYADSVKGRFTISRDNAKNTVYVQMNSRKPEDTAVYYCAARSRYYYTRFDYWGQGTQVTVSS | low polyreactivity |
| QGQLVESGGGLVQAGGSLRLSCAASGSTYPNNTMGWYREAPGKEWEFVAAITGDGGTTYYADSVKGRFTISRDNAKNTVYLQMNSLKPEDSAVYYCAVPYPAEGYGVDYWGQGTQVTVSS | low polyreactivity |
| QGQLVESGGGLVQAGGSLRLTCAASGSTFDQNVMGWYRQAPGKERELVDTINFSGDSTYYADSVKGRFTISRDNAKNTVYLQRNSLKPEDTAVYYCAVDWGEYIDTSVKRDISSYWGQGTQVTVSS | low polyreactivity |
| QGQLVESGGGLVQAGGSVRLSCAASRITLGSNAMGWDRQAPGKERELVAAITSGSSTYYADSVKGRFTISRDNAKNTVNLQMNSLKPEDTAVYYCAADPTSYSYEYNYWGQGTQVTVSS | low polyreactivity |
| QGQLVESGGGLVQAGGTLRLSCAASGSTFAVYVMGGYRQAPGTERELVAAISTSGARTYYADSVKGRFTISRDNAKNTVYLQMNSLKPEDTAVYYCAARSNALFRFDYWGQGTQVTVSS | high polyreactivity |
| QGQLVESGGGLVQAGVTLRLSCAASGITFPWYAMGWYRQAPGKERELVASITSGGSTNYADSVKGRFTISRDNSKNTVYLQMNSLKPEDTAVSYCARDWYSPVYWAAGYDAWGSGYDYWGQGTQVTVSS | high polyreactivity |
| QGQLVESWGGLVQAGGSLRLSCAASGSTLRRYAMGWYRQAPGKERELVAAISRRGGSTYYADSVKGRFSISRDFAKNTVYLEMNSLKPEDTAVYYCAAKGFSTRQFDYWGQGTQVTVSS | high polyreactivity |
| QIQLVESGGGLVQAGGSLRLSCAASGSIFSKYAMGWYRQAPGKERELVAAISAGGGSTYYADSVKGRFTISRDNAKNTVYLQMNSLKPEDTAVYYCAARSRFRFDYWVQGTQVTVSS | high polyreactivity |
| QIQLVESVGGLVQAGGSLRLSCDASGSTLKYTAMGWYRQAPRKESELVAAISTSGGNTYYADSVKGPFTISRDNAKNTVYLQMNSLKPEDTAVYYCAKVLGYYYYDYDSWGQGTQVTVSS | low polyreactivity |
| QLHLVESGGGLVQAGGSLRLSCAASGRSFGLNALGRSRQAHGKERELVAVISFGDGGTYYADSVKGRFTISLDNAKNTVYLQMNSLKPEDTAVYYCATDYQSTSVWGGHFVINPYDYWGQGTKVTVSS | low polyreactivity |
| QLHLVESWGGLVQAGGSLRLSCAASGILFQNNDMGSYRQAPGKERELVAAITGSGGSTYYADSVKGRFTISRDNATNTVYLQMNSLKPEDTAVYYCNAVWEYYGKSDYWGQGTQVTVSS | low polyreactivity |
| QLQHVDSGGGLVQAGGSLRLSCATSGIIFYDYDIGWSRQAPEKESELVARISRNGGRTYYADSVKGRFTISRDNAKNTVYLQMNSLNPEDTAVYYCNGVYFVTTSPGSDYWGQGTQVTVSS | high polyreactivity |
| QLQHVESGAVLVQAAGSLRLICAASGLIFPYNAMGWSRQAPGKERELVAAIDTRASSTYYADSVKGRFTISRDNAKNSVYLQMNSLKPEDTAVYYCATRRWGRRKGVGYWGQGTQVTVSS | high polyreactivity |
| QLQHVESGRGLVQAGGSLRLSCADSGRTYGGYDMGWYRQATVKERELVAAISYSGGSTYYADSVKGRFTISRDNAKNTVYLEMNSLKPEDTAVFYCAADGYDAYYWGQGTQVTVSS | low polyreactivity |
| QLQHVETGGGLVQAGGSLRLSCAASGSTFRSYVMGWYRQAPGKERELVAAISWITGSTYYADSVKGRFTISRDNAKNTVYLQMNSLKPEDTAVYDCAARYRTQSSLYYWGQGTQVTVSS | high polyreactivity |
| QLQIVESGGGLVQAGGSLRLTCAASGSTFPLYAMGWYSQAPGKEREFVAAIRWIGGSTYYADSVKGRFTISRDNAKNSVYLLMNSLKPEDTAVYYGAADYVVSAFDYWGQGTQVTVSS | low polyreactivity |
| QLQLQESGGGLVQAGGSLRLSCAASGPITRRSTMGWYRQAPRKVRELVTAITRGTNTNYADSVKGRFTISRDNAKNTEYLQMNSLKPEDTAVYYCAAYGVLKPSRGDAVFLRYLGQGTQVTVSS | low polyreactivity |
| QLQLQESGGGLVQAGGSLRLSCAASGSNSRYYDMGWYRQAAGKEREFVAGISGGAITYYEDSVKGRFTISRDNANITVYVQMNSLKPEDTAVYYCAADTGDYQYHSYWGQGTQVTVSS | low polyreactivity |
| QLQLVDSGGGLVQAGGSLRLSCAASGFTLDYYAMGWYRQAPGKESELVAAISWSGGRTYYADSVKGRFTISRDNAKNTVYLQMNSLKPEDTAVYYCNASPYGRKYGILADGDYWGQGTQVTVSS | high polyreactivity |
